Three molecules from patent US20240050583A1 (HARBOUR BIOMED SHANGHAI, published 2024) can be followed below.

In one assay the target is T1, human 5T4 (human, UniProt Q13641 32-420).
T1 construct: whole, on cells; also called trophoblast glycoprotein; TPBG
T1 sequence (looked up): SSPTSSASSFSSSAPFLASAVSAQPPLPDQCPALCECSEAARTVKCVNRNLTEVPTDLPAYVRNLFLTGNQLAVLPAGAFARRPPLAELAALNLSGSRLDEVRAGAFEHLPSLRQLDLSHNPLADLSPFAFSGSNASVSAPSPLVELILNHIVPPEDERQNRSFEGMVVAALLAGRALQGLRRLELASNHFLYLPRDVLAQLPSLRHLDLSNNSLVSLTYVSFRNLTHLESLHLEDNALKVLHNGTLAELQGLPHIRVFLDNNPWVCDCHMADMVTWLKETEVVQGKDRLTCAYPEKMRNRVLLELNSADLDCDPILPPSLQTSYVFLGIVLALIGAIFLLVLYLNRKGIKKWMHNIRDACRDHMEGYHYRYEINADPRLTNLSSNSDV
The assay is described as follows: flow cytometry (FACS) on HCC1954 cells highly expressing human 5T4. As to the method:
The binding ability of the antibody molecules to a human breast cancer cell strain HCC1954 (ATCC, CRL-2338) highly expressing human 5T4 was determined by flow cytometry FACS. Specifically, the cell density was adjusted to 1×10⁶ cells/mL. The cells were seeded in a 96-well V-bottom plate (Corning, #3894) at 100 μL/well, followed by the addition of test antibodies diluted in a 3-fold gradient at a concentration that was 2 times the final concentration, each at 100 μL/well. The cells were incubated at 4° C. for 1 h away from light. Thereafter, the cells in each well were rinsed twice with 100 μL of pre-cooled PBS, and centrifuged at 500 g at 4° C. for 5 min, and then the supernatant was discarded. Thereafter, a fluorescent secondary antibody (Alexa Fluor 488-conjugated AffiniPure Goat Anti-Human IgG, Fcγ Fragment Specific, Jackson ImmunoResearch Inc., #109-545-098, diluted in a 1:500 ratio) was added at 100 μL/well, and the plate was incubated at 4° C. for 30 min away from light. The cells in each well were then rinsed twice with 100 μL of pre-cooled PBS and centrifuged at 500 g at 4° C. for 5 min, and then the supernatant was discarded. Finally, the cells in each well were resuspended in 200 μL of pre-cooled PBS. Fluorescence signal values were read using a BD FACS CANTOII flow cytometer, and the data were processed and analyzed using FlowJo v10 (FlowJo, LLC) software.
(In general: In flow cytometry, cells or beads pass a laser one at a time.)

A further assay addresses T2, human BCMA (human, UniProt Q02223 1-184).
T2 construct: whole, on cells; also called hBCMA; tumor necrosis factor receptor superfamily member 17
T2 sequence (looked up): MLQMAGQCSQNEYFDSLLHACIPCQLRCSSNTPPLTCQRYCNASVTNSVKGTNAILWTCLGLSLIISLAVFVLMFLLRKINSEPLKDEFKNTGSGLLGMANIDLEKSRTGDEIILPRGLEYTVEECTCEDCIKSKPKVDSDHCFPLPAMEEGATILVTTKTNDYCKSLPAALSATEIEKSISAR
The assay is described as follows: flow cytometry (FACS) on HEK293T-hBCMA and NCI-H929 cells, legend of FIG. 32.

B1: HCAb PR004432 (antibody, human IgG1, V domains shown)
VH: EVQLQQSGPGLVKPSQTLSLTCAISGDSVSNNYAAWNWIRQSPSRGLEWLGRTYYRSKWYNDYAVSVKSRITINPDTSKNQFSLQLNRVTPEDTAVYYCARDNYYGSGSPPVDALDIWGQGTMVTVSS
notes: Fully human heavy-chain-only antibody with human IgG1 hinge and Fc; also called 1041P014H2; anti-5T4 HCAb antibody PR004432
As to B1, the binding result with human 5T4 is on record as “binds”.

B2: PR004432-ADC (antibody, human IgG1, V domains shown)
VH: B1 VH
modifications: mc-vc-PAB-MMAE coupled to Cys-220 (Eu numbering; 97.12% of the site coupled)
notes: Purified coupling product of HCAb PR004432 with mc-vc-PAB-MMAE, main component DAR=2; also called coupling product PR004432-ADC
As to B2, the binding result with human 5T4 is “binds”.

B3: PR004433-ADC (antibody, human IgG1, V domains shown)
VH: EVQLVETGGGLIQPGGSLRLSCAASGFTVSDSYMTWVRQAPGKGLEWVSVIFSGGRTYYSDSVKGRFTISRDNAKNTLYLQMNSLRAEDTALYYCARRNYDDTRGTDVFDIWGQGTMVTVSS
modifications: mc-vc-PAB-MMAE coupled to Cys-220 (Eu numbering; 98% of the site coupled)
notes: Coupling product of HCAb PR004433 with mc-vc-PAB-MMAE, main component DAR=2; also called coupling product PR004433-ADC
Regarding B3, the binding result in the assay with human BCMA is “binds”.
